Publication PMC4394031 (Structure (London, England : 1993), 2015)
Each block holds one binder with its values, some of them ahead of it.

Legend:
[1] = molecular target: T1, Human Nrp2-b1b2 (Neuropilin-2 domains b1b2, residues 276–595) (human, UniProt O60462 276-595); assay: crystal structure
T1 sequence (looked up): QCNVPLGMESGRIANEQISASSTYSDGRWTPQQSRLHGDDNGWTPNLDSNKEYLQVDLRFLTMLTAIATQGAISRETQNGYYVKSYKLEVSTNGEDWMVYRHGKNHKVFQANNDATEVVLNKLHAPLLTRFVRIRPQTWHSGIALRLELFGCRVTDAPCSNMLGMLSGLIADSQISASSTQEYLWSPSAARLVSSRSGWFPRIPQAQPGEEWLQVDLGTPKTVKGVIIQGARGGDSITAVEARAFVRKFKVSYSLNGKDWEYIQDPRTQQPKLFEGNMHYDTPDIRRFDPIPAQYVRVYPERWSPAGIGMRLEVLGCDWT

[2] = molecular target: T1, Human Nrp2-b1b2 (Neuropilin-2 domains …); assay: differential scanning fluorimetry
crystal structure = molecular target: the molecule itself; assay: crystal structure
[3] = molecular target: T1, Human Nrp2-b1b2 (Neuropilin-2 domains …); assay: plate competition assay with AP-tagged ligand
[4] = molecular target: T2, AP-VEGF-C (alkaline phosphatase-tagged VEGF-C, residues 108–223) (UniProt P97953 108-223); assay: plate competition assay with AP-tagged ligand
T2 sequence (looked up): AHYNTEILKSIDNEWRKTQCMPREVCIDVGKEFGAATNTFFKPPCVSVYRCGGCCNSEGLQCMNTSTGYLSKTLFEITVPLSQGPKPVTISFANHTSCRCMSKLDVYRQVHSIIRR

Kd [2]: 199 µM
Binder: WRQVHSIIRR [processed VEGF-C C-terminus peptide (215-RQVHSIIRR-223)]
Tm of Nrp2-b1b2 with 0.5 mM peptide (48.8°C without) [2]: 50.3 °C

IC50 [4]: 1.5 µM
B2: human Nrp2-b1 (residues 276–430) (domain or fragment, UniProt O60462 276-430, looked up)
chain: QCNVPLGMESGRIANEQISASSTYSDGRWTPQQSRLHGDDNGWTPNLDSNKEYLQVDLRFLTMLTAIATQGAISRETQNGYYVKSYKLEVSTNGEDWMVYRHGKNHKVFQANNDATEVVLNKLHAPLLTRFVRIRPQTWHSGIALRLELFGCRVT

Second part, the binder before the results:

Binder: SIIRR [VEGF-C C-terminus (219-SIIRR-223), the C-terminal five amino acids of mature VEGF-C]
binding result [1]: binds

B1: Nrp2-b1b2/VEGF-C fusion (human Nrp2 residues 276–595 with VEGF-C 219-SIIRR-223 fused to its C-terminus) (other)
chain: QCNVPLGMESGRIANEQISASSTYSDGRWTPQQSRLHGDDNGWTPNLDSNKEYLQVDLRFLTMLTAIATQGAISRETQNGYYVKSYKLEVSTNGEDWMVYRHGKNHKVFQANNDATEVVLNKLHAPLLTRFVRIRPQTWHSGIALRLELFGCRVTDAPCSNMLGMLSGLIADSQISASSTQEYLWSPSAARLVSSRSGWFPRIPQAQPGEEWLQVDLGTPKTVKGVIIQGARGGDSITAVEARAFVRKFKVSYSLNGKDWEYIQDPRTQQPKLFEGNMHYDTPDIRRFDPIPAQYVRVYPERWSPAGIGMRLEVLGCDWTSIIRR
binding result (crystal structure): binds

Binder: ATWLPPR [ATWLPPR, an optimized peptide inhibitor of Nrp]
IC50 [3]: 10 µM
